What was measured:
[1] = molecular target: T1, FcγRIa (human, UniProt P12314 16-292); assay: SPR (Biacore), antibody captured, FcγR as analyte; relative to GpH7-A5/GpH7-B3/GpL16-k0 = 100
T1 construct: extracellular domain; Soluble extracellular domain with C-terminal His tag, used as analyte in Biacore; also called FcgRI; 1a; not shown: His tag attached to the C terminus
Method: (§1) The heterodimerized antibodies He Abs in which one of the H chains was introduced with an alteration were assayed for their binding activities to each activating FcγR and inhibitory FcγR according to the method described in Example 4. […] The activating FcγRs in FIGS. 26, 27, 28, and 29 are FcγRIa, FcγRIIa (R), FcγRIIa (H), and FcγRIIIa, respectively.
(§2) Analysis of interaction between objective antibody and the FcγR was carried out using Biacore T100 (GE Healthcare). HBS-EP+ (GE Healthcare) was used as the running buffer, and the measurement temperature was set to 25° C. Chips produced by immobilizing the antigen peptide by the amine coupling method to a Series S Sencor Chip CM5 (GE Healthcare), or alternatively, chips produced by allowing preliminarily biotinylated antigen peptides to interact with and immobilize onto a Series S Sensor Chip SA (certified) (GE Healthcare) were used. Antibodies of interest were captured onto an antigen peptide-immobilized chip, and allowed to interact to each FcγR diluted with running buffer. To regenerate and repeatedly use the chip, the antibodies captured on the chip were washed off by reacting 10 mM glycine-HCl, pH 1.5.
T1 sequence (P12314 16-292): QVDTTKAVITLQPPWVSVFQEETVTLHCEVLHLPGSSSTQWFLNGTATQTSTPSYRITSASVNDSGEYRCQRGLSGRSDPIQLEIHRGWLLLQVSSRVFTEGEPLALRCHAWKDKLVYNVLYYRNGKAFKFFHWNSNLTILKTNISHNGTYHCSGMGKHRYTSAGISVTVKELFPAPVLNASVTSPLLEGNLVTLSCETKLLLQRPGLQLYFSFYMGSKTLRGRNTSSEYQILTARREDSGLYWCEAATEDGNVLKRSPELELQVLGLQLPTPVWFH

[2] = molecular target: T2, FcγRIIb (human, UniProt P31994 43-217); assay: as above
T2 construct: extracellular domain; Soluble extracellular domain with C-terminal His tag, used as analyte in Biacore; also called FcgRIIb; 2b; not shown: His tag attached to the C terminus
T2 sequence (looked up): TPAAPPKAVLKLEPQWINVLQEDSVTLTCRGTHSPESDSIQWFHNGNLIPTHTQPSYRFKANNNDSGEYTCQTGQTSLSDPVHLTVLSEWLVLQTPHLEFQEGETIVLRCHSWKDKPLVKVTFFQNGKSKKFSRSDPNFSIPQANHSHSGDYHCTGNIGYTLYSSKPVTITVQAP
Method: as §1, §2

[3] = molecular target: T3, FcγRIa (human, UniProt P12314 16-292); assay: SPR (Biacore), captured antibody, FcγRIa analyte; relative to HoCon Ab GpH7-B3/GpL16-k0 = 100
T3 construct: extracellular domain; soluble extracellular domain with C-terminal His tag, expressed in FreeStyle293 cells; also called FcgRI; FcgRIa
T3 sequence (P12314 16-292): as the sequence (P12314 16-292) above

Binder	He/Con_1a [1]	He/Con_2b [2]	Ho/Con_1a [3]
GpH7-A5/GpH7-B3 variant S239_05P/GpL16-k0 (antibody, human IgG1, kappa, Heterodimerized anti-glypican-3 IgG1; alteration in the GpH7-B3 chain only; also called He Ab) heavy 1: not shown heavy 2: not shown light: DIVMTQSPLSLPVTPGEPASISCQASESLVHSNRNTYLHWYLQKPGQSPQLLIYKVSNRFSGVPDRFSGSGSGTDFTLKISRVEAEDVGVYYCSQNTHVPPTFGQGTKVEIERTVAAPSVFIFPPSDEQLKSGTASVVCLLNNFYPREAKVQWKVDNALQSGNSQESVTEQDSKDSTYSLSSTLTLSKADYEKHKVYACEVTHQGLSSPVTKSFNRGEC	85.3 % of control (=100)	102 % of control (=100)	
GpH7-B3 variant P271_02A/GpL16-k0 (antibody, human IgG1, kappa, homodimerized IgG1, mutation in both H chains; also called Ho Ab) heavy: not shown light: DIVMTQSPLSLPVTPGEPASISCQASESLVHSNRNTYLHWYLQKPGQSPQLLIYKVSNRFSGVPDRFSGSGSGTDFTLKISRVEAEDVGVYYCSQNTHVPPTFGQGTKVEIERTVAAPSVFIFPPSDEQLKSGTASVVCLLNNFYPREAKVQWKVDNALQSGNSQESVTEQDSKDSTYSLSSTLTLSKADYEKHKVYACEVTHQGLSSPVTKSFNRGEC			102 % of control
GpH7-B3 variant E269_04F/GpL16-k0 (antibody, human IgG1, kappa, homodimerized IgG1, mutation in both H chains; also called Ho Ab) heavy: not shown light: DIVMTQSPLSLPVTPGEPASISCQASESLVHSNRNTYLHWYLQKPGQSPQLLIYKVSNRFSGVPDRFSGSGSGTDFTLKISRVEAEDVGVYYCSQNTHVPPTFGQGTKVEIERTVAAPSVFIFPPSDEQLKSGTASVVCLLNNFYPREAKVQWKVDNALQSGNSQESVTEQDSKDSTYSLSSTLTLSKADYEKHKVYACEVTHQGLSSPVTKSFNRGEC			102 % of control
GpH7-A5/GpH7-B3 variant S267_07I/GpL16-k0 (antibody, human IgG1, kappa, Heterodimerized anti-glypican-3 IgG1; alteration in the GpH7-B3 chain only; also called He Ab) heavy 1: not shown heavy 2: not shown light: DIVMTQSPLSLPVTPGEPASISCQASESLVHSNRNTYLHWYLQKPGQSPQLLIYKVSNRFSGVPDRFSGSGSGTDFTLKISRVEAEDVGVYYCSQNTHVPPTFGQGTKVEIERTVAAPSVFIFPPSDEQLKSGTASVVCLLNNFYPREAKVQWKVDNALQSGNSQESVTEQDSKDSTYSLSSTLTLSKADYEKHKVYACEVTHQGLSSPVTKSFNRGEC	100 % of control (=100)	192 % of control (=100)	
GpH7-A5/GpH7-B3 variant V266_08L/GpL16-k0 (antibody, human IgG1, kappa, Heterodimerized anti-glypican-3 IgG1; alteration in the GpH7-B3 chain only; also called He Ab) heavy 1: not shown heavy 2: not shown light: DIVMTQSPLSLPVTPGEPASISCQASESLVHSNRNTYLHWYLQKPGQSPQLLIYKVSNRFSGVPDRFSGSGSGTDFTLKISRVEAEDVGVYYCSQNTHVPPTFGQGTKVEIERTVAAPSVFIFPPSDEQLKSGTASVVCLLNNFYPREAKVQWKVDNALQSGNSQESVTEQDSKDSTYSLSSTLTLSKADYEKHKVYACEVTHQGLSSPVTKSFNRGEC	98.1 % of control (=100)	236 % of control (=100)	
GpH7-B3 variant E269_06M/GpL16-k0 (antibody, human IgG1, kappa, homodimerized IgG1, mutation in both H chains; also called Ho Ab) heavy: not shown light: DIVMTQSPLSLPVTPGEPASISCQASESLVHSNRNTYLHWYLQKPGQSPQLLIYKVSNRFSGVPDRFSGSGSGTDFTLKISRVEAEDVGVYYCSQNTHVPPTFGQGTKVEIERTVAAPSVFIFPPSDEQLKSGTASVVCLLNNFYPREAKVQWKVDNALQSGNSQESVTEQDSKDSTYSLSSTLTLSKADYEKHKVYACEVTHQGLSSPVTKSFNRGEC			101 % of control
GpH7-A5/GpH7-B3 variant S324_06M/GpL16-k0 (antibody, human IgG1, kappa, Heterodimerized anti-glypican-3 IgG1; alteration in the GpH7-B3 chain only; also called He Ab) heavy 1: not shown heavy 2: not shown light: DIVMTQSPLSLPVTPGEPASISCQASESLVHSNRNTYLHWYLQKPGQSPQLLIYKVSNRFSGVPDRFSGSGSGTDFTLKISRVEAEDVGVYYCSQNTHVPPTFGQGTKVEIERTVAAPSVFIFPPSDEQLKSGTASVVCLLNNFYPREAKVQWKVDNALQSGNSQESVTEQDSKDSTYSLSSTLTLSKADYEKHKVYACEVTHQGLSSPVTKSFNRGEC	99.2 % of control (=100)	112 % of control (=100)	
GpH7-A5/GpH7-B3 variant S239_07I/GpL16-k0 (antibody, human IgG1, kappa, Heterodimerized anti-glypican-3 IgG1; alteration in the GpH7-B3 chain only; also called He Ab) heavy 1: not shown heavy 2: not shown light: DIVMTQSPLSLPVTPGEPASISCQASESLVHSNRNTYLHWYLQKPGQSPQLLIYKVSNRFSGVPDRFSGSGSGTDFTLKISRVEAEDVGVYYCSQNTHVPPTFGQGTKVEIERTVAAPSVFIFPPSDEQLKSGTASVVCLLNNFYPREAKVQWKVDNALQSGNSQESVTEQDSKDSTYSLSSTLTLSKADYEKHKVYACEVTHQGLSSPVTKSFNRGEC	97.8 % of control (=100)	107 % of control (=100)	
GpH7-B3 variant E269_08L/GpL16-k0 (antibody, human IgG1, kappa, homodimerized IgG1, mutation in both H chains; also called Ho Ab) heavy: not shown light: DIVMTQSPLSLPVTPGEPASISCQASESLVHSNRNTYLHWYLQKPGQSPQLLIYKVSNRFSGVPDRFSGSGSGTDFTLKISRVEAEDVGVYYCSQNTHVPPTFGQGTKVEIERTVAAPSVFIFPPSDEQLKSGTASVVCLLNNFYPREAKVQWKVDNALQSGNSQESVTEQDSKDSTYSLSSTLTLSKADYEKHKVYACEVTHQGLSSPVTKSFNRGEC			101 % of control
GpH7-B3 variant E269_15Y/GpL16-k0 (antibody, human IgG1, kappa, homodimerized IgG1, mutation in both H chains; also called Ho Ab) heavy: not shown light: DIVMTQSPLSLPVTPGEPASISCQASESLVHSNRNTYLHWYLQKPGQSPQLLIYKVSNRFSGVPDRFSGSGSGTDFTLKISRVEAEDVGVYYCSQNTHVPPTFGQGTKVEIERTVAAPSVFIFPPSDEQLKSGTASVVCLLNNFYPREAKVQWKVDNALQSGNSQESVTEQDSKDSTYSLSSTLTLSKADYEKHKVYACEVTHQGLSSPVTKSFNRGEC			100 % of control
GpH7-B3 variant A330_09D/GpL16-k0 (antibody, human IgG1, kappa, homodimerized IgG1, mutation in both H chains; also called Ho Ab) heavy: not shown light: DIVMTQSPLSLPVTPGEPASISCQASESLVHSNRNTYLHWYLQKPGQSPQLLIYKVSNRFSGVPDRFSGSGSGTDFTLKISRVEAEDVGVYYCSQNTHVPPTFGQGTKVEIERTVAAPSVFIFPPSDEQLKSGTASVVCLLNNFYPREAKVQWKVDNALQSGNSQESVTEQDSKDSTYSLSSTLTLSKADYEKHKVYACEVTHQGLSSPVTKSFNRGEC			108 % of control
GpH7-B3 variant A330_14T/GpL16-k0 (antibody, human IgG1, kappa, homodimerized IgG1, mutation in both H chains; also called Ho Ab) heavy: not shown light: DIVMTQSPLSLPVTPGEPASISCQASESLVHSNRNTYLHWYLQKPGQSPQLLIYKVSNRFSGVPDRFSGSGSGTDFTLKISRVEAEDVGVYYCSQNTHVPPTFGQGTKVEIERTVAAPSVFIFPPSDEQLKSGTASVVCLLNNFYPREAKVQWKVDNALQSGNSQESVTEQDSKDSTYSLSSTLTLSKADYEKHKVYACEVTHQGLSSPVTKSFNRGEC			105 % of control
GpH7-B3 variant A327_09D/GpL16-k0 (antibody, human IgG1, kappa, homodimerized IgG1, mutation in both H chains; also called Ho Ab) heavy: not shown light: DIVMTQSPLSLPVTPGEPASISCQASESLVHSNRNTYLHWYLQKPGQSPQLLIYKVSNRFSGVPDRFSGSGSGTDFTLKISRVEAEDVGVYYCSQNTHVPPTFGQGTKVEIERTVAAPSVFIFPPSDEQLKSGTASVVCLLNNFYPREAKVQWKVDNALQSGNSQESVTEQDSKDSTYSLSSTLTLSKADYEKHKVYACEVTHQGLSSPVTKSFNRGEC			102 % of control
GpH7-A5/GpH7-B3 variant V266_07I/GpL16-k0 (antibody, human IgG1, kappa, Heterodimerized anti-glypican-3 IgG1; alteration in the GpH7-B3 chain only; also called He Ab) heavy 1: not shown heavy 2: not shown light: DIVMTQSPLSLPVTPGEPASISCQASESLVHSNRNTYLHWYLQKPGQSPQLLIYKVSNRFSGVPDRFSGSGSGTDFTLKISRVEAEDVGVYYCSQNTHVPPTFGQGTKVEIERTVAAPSVFIFPPSDEQLKSGTASVVCLLNNFYPREAKVQWKVDNALQSGNSQESVTEQDSKDSTYSLSSTLTLSKADYEKHKVYACEVTHQGLSSPVTKSFNRGEC	99.3 % of control (=100)	152 % of control (=100)	
GpH7-B3 variant A330_08L/GpL16-k0 (antibody, human IgG1, kappa, homodimerized IgG1, mutation in both H chains; also called Ho Ab) heavy: not shown light: DIVMTQSPLSLPVTPGEPASISCQASESLVHSNRNTYLHWYLQKPGQSPQLLIYKVSNRFSGVPDRFSGSGSGTDFTLKISRVEAEDVGVYYCSQNTHVPPTFGQGTKVEIERTVAAPSVFIFPPSDEQLKSGTASVVCLLNNFYPREAKVQWKVDNALQSGNSQESVTEQDSKDSTYSLSSTLTLSKADYEKHKVYACEVTHQGLSSPVTKSFNRGEC			106 % of control
GpH7-A5/GpH7-B3 variant S239_06M/GpL16-k0 (antibody, human IgG1, kappa, Heterodimerized anti-glypican-3 IgG1; alteration in the GpH7-B3 chain only; also called He Ab) heavy 1: not shown heavy 2: not shown light: DIVMTQSPLSLPVTPGEPASISCQASESLVHSNRNTYLHWYLQKPGQSPQLLIYKVSNRFSGVPDRFSGSGSGTDFTLKISRVEAEDVGVYYCSQNTHVPPTFGQGTKVEIERTVAAPSVFIFPPSDEQLKSGTASVVCLLNNFYPREAKVQWKVDNALQSGNSQESVTEQDSKDSTYSLSSTLTLSKADYEKHKVYACEVTHQGLSSPVTKSFNRGEC	99 % of control (=100)	101 % of control (=100)	

— patent US20150344570A1 (published 2015)
